Results taken from the supplement of paper PMC12764529.
± gives the half width of the 95% confidence interval.

What was measured:
[1] = folding stability dG unfold from chymotrypsin proteolysis; higher = more stable
Experimental: (§1)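 Folding stability of de novo designed mini-proteins (<80 aa, no Cys; designed by TrROS, TrMRF, ProteinMPNN and the joint model) was measured by cDNA display proteolysis with trypsin and chymotrypsin. Each protease was used at 11 concentrations in a threefold dilution series plus a no-protease condition. K50 was inferred by Bayesian fitting of sequencing counts, and dG unfold was derived against a sequence-predicted unfolded-state K50 (Tsuboyama et al. method). Sequences shown include variable-length N-terminal GS-type padding (SAGGSAGG...) inside a display construct carrying a PA tag. Rows were kept only if the AF2 dimer inter-PAE was >15, to exclude likely homo-oligomers.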

[2] = folding stability dG unfold (combined trypsin and chymotrypsin); higher = more stable
Experimental: as §1

Sequence	folding stability dG unfold [1] [kcal/mol]	folding stability dG unfold [2] [kcal/mol]
SAGGLTTQETVSLTSPTNVALTVLSTSVTLSPSTRTLSYTVQGPDGTVTTETVVTPAPLPELDPSAGSAGGS [r16_132_JUSTAS]	0.346 ± 0.15	-0.159 ± 0.15
SAGGMIRRITIYITDPGPSAPATTTTITVDVPPDRPDVPDEEVAQRVAESIAPKTGATATVEKIEEVSAGGS [r8_101_JUSTAS]	0.406 ± 0.071	-0.159 ± 0.15
SAGGMKAKATFKIPKTFVDPKNNSPKISESEITIEREFKSEEEAKEFVEKIKEELPPELTELVSLELESAGG [r19_209_JUSTAS]	-0.601 ± 0.48	< -1
SAGGMKIIKELYDKLPPEVKYFSVPFHYPTGKVEPVKPSPTLSMFEPFNPETGEVDRFVVYRDKIEPLSAGG [r13_803_TrMRF]	0.0804 ± 0.18	-0.229 ± 0.24
SAGGMKKITIPMKVLEEKFGIPKNTSPEELAKKLNPKEKVEVLSVTSEKSENGEENPTVTVLVIPPKESAGG [r13_723_TrMRF]	0.0873 ± 0.14	-0.22 ± 0.15
SAGGMKVEDFVLELPTPEGKKILVEAVKVTTDPEAGLISVELKTPDKKEKLTLSPDEYVRGPSPEEFLKSAG [r5_15_JUSTAS]	-0.376 ± 0.19	-0.562 ± 0.33
SAGGMPATLEVRLPDGAGAVGVVRADDPDEIIEAARAIPADAPVVLTTDDPAYGRLFLEAGFDVVTLESAGG [r13_476_TrMRF]	0.241 ± 0.066	-0.138 ± 0.16
SAGGMTETATTTTTLPDGTVVTTGTTTVTEGSSTTTTTFTTVTTVAPVPPPPYPPAPLPWPEDPVLASAGGS [r8_269_JUSTAS]	0.142 ± 0.15	< -1
SAGGMTVTVPFTSEEELEAAIEAAPSSLTTVTTTDPARGLRRTLNVDPATRAVVETEEEAVDPEDPALSAGG [r13_945_JUSTAS]	-0.377 ± 0.14	< -1
SAGGPAGEEVPVRITARIYMPDPDGKMHSHEIPIDIPMPVDELKEKLIKEIMDEHGYHITEIDIEPYSAGGS [r16_511_TrROS]	-0.432 ± 0.21	-0.711 ± 0.25
SAGGPDPYNLKVEEETYPNPDGGEMKIPKIEIPDGRLKIDMEMRNPGNGKEHEHEITIPVKPGQEIFISAGG [r13_190_TrROS]	0.906 ± 0.14	0.0459 ± 0.21
SAGGPEKKILVARDSSDPNLPLEKIKEELEKKGFPPAEVTSAATEPLEKAREKAEKEGNPLIVLPVESAGGS [r16_94_JUSTAS]	-0.927 ± 0.32	< -1
SAGGPIKRDPDGKIEIHYNEDNGRWHVKIRDPGKPKKEREFKSPDDANEFAKSFANDGWKIDKVEPYPSAGG [r13_727_TrROS]	1.08 ± 0.25	0.834 ± 0.32
SAGGPISVGEIEHAADNVDNSHQNGDPNEMMELYDEAEEIQDQYEENGDPEVRDEVKKVVERAKRHMGSAGG [r13_137_TrROS]	0.364 ± 0.077	-0.423 ± 0.45
SAGGPWHEITVRAKGPPGNTPEQAVDEVADELADNNPDFTVEIQEVEVNPEDGQVEATIRVEDGKIVSAGGS [r8_26_TrROS]	-0.0882 ± 0.034	< -1
SAGGSADNENNENQKPKPKPKKKLEVTIPVPLPPGDSLEEAMEQAYNIANHLAQSGKLDEVEISIFSAGGSA [r15_450_TrROS]	-0.241 ± 0.4	< -1
SAGGSAEEEEITIKLRITVYNEETGKPVKEIEIEIKVKKGQTLEQILEEAKKLLEEKGYKIVEIEISAGGSA [r15_195_TrROS_Hall]	4.42 ± 0.31	4.52 ± 0.46
SAGGSAGGAEKIKKKLEELGFEIVKIEKESENKIKIYVKPDNPEKIKEIKEKISSSEVDEIGNESAGGSAGG [r6_83_TrMRF]	0.486 ± 0.16	-0.27 ± 0.17
SAGGSAGGAIAPGEEVEAEVTIVDPLTGKETTAKVTLTVHPTSVTITLPGGKPAVVPAAYVRFGSAGGSAGG [r6_436_TrMRF]	-0.176 ± 0.56	-0.535 ± 0.4
SAGGSAGGGGGFRVKAEVKHGGKEYPMEILIDPSEGNINIQMPNGKSITLPLNDVKIDEVEPVNSAGGSAGG [r6_185_TrROS]	0.341 ± 0.29	0.101 ± 0.34
SAGGSAGGGMTGATPTPRTVPLPGDRTATVYERPETGELLVELPGRRLRVSPAALAAGEVALEASAGGSAGG [r6_940_JUSTAS]	0.113 ± 0.22	< -1
